Measured values: paper PMC5548887

Biological target: HHARI full-length (residues 1-557) (UniProt Q9Y4X5)
Test: ITC; nanoITC, 25 °C, 50 mM NaCl, 10 mM Na2HPO4, 2 mM KH2PO4 pH 7.0; 200 μM UbcH7 proteins injected into 20 μM HHARI full length; 500 μM UbcH5b proteins into 50 μM HHARI full length

UbcH5b wild type, sequence (P62837 whole entry): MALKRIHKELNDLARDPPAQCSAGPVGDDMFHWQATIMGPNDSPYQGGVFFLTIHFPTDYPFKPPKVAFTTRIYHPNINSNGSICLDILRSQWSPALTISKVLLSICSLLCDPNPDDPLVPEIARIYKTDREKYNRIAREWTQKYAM
HHARI full-length (residues 1-557), sequence (Q9Y4X5 whole entry, the tested form may be a part): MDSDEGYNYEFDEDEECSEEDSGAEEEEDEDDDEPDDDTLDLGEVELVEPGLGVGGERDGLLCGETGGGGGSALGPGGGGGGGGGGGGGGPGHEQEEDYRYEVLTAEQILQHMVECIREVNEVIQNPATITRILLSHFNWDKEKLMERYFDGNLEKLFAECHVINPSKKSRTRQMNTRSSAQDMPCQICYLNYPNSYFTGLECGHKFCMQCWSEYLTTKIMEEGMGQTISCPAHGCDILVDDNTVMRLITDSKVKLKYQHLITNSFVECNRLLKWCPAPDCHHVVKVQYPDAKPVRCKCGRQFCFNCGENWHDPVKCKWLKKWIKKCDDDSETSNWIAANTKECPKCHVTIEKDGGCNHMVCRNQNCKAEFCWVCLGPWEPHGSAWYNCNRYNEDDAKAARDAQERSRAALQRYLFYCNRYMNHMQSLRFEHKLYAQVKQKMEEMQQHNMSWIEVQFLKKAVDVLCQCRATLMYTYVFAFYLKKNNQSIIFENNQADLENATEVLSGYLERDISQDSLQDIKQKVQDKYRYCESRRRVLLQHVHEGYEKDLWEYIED

Substance: UbcH5b wild type (from UniProt P62837 1-147) (enzyme; other documents disagree on this pair)
- Kd: 19.5 µM
